US20060115839A1 (published 2006)

Biological target: endogenous histone H3 in U2OS cells (human, UniProt P68431 2-136)
Test: formaldehyde crosslinking in irradiated U2OS cells, nickel bead capture, H3 immunoblot (FIG. 3g)
Experimental: Non-transfected U2OS osteosarcoma cells and transfected U2OS cells expressing His-tagged GFP-53BP1 fusion proteins with wild-type or mutant (Asp1521Arg) 53BP1 sequences were pre-extracted with Triton-X100 in situ 15 min after irradiation and then treated with formaldehyde to crosslink interacting proteins. His-tagged GFP-53BP1 was then affinity-purified on nickel-coated beads and bound histone H3 was detected by immunoblotting after the crosslinks were reversed by boiling. Histone H3 was captured on beads incubated with extracts from His-tagged GFP-wild-type 53BP1 expressing cells treated with formaldehyde, but not on beads incubated with extracts from cells that were mock-crosslinked or that were expressing the Asp1521Arg mutant protein (FIG. 3g). Further, the crosslinking was specific for histone H3, because histone H2A, although present in the Triton-X100 insoluble material, was not captured by the beads (data not shown).
Proteins were crosslinked with formaldehyde³⁰. Parental U2OS cells and U2OS cells expressing N-terminally His-tagged GFP-53BP1 fusion proteins containing residues 1220-1711 of 53BP1 were exposed to 9 Gy IR. […] Histone H3 was detected by immunoblotting after the crosslinks were reversed by boiling.

B1: N-terminally His-tagged GFP-53BP1 fusion protein containing residues 1220-1711 of 53BP1 with Asp1521Arg (other)
chain: QGEEEFDMPQPPHGHVLHRHMRTIREVRTLVTRVITDVYYVDGTEVERKVTEETEEPIVECQECETEVSPSQTGGSSGDLGDISSFSSKASSLHRTSSGTSLSAMHSSGSSGKGAGPLRGKTSGTEPADFALPSSRGGPGKLSPRKGVSQTGTPVCEEDGDAGLGIRQGGKAPVTPRGRGRRGRPPSRTTGTRETAVPGPLGIEDISPNLSPDDKSFSRVVPRVPDSTRRTDVGAGALRRSDSPEIPFQAAAGPSDGLDASSPGNSFVGLRVVAKWSSNGYFYSGKITRDVGAGKYKLLFDRGYECDVLGKDILLCDPIPLDTEVTALSEDEYFSAGVVKGHRKESGELYYSIEKEGQRKWYKRMAVILSLEQGNRLREQYGLGPYEAVTPLTKAADISLDNLVEGKRKRRSNVSSPATPTASSSSSTTPTRKITESPRASMGVLSGKRKLITSEEERSPAKRGRKSATVKPGAVGAGEFVSPCESGDNTGE
notes: Expressed in U2OS cells; crosslinked in situ with formaldehyde; also called His-tagged GFP-53BP1 D1521R; Asp1521Arg mutant protein; not shown: N-terminal His tag and GFP, with any linkers
- binding result: no binding
